In US20060134122A1, “Peptides of syndecan-1 for inhibition of cancer” (priority 2004, published 2006):

Test system: MDA-MB-231 human mammary carcinoma cells
Assay: Cell spreading assay (rhodamine-phalloidin), MDA-MB-231
Assay type: cell-based
Details: 2 h, LM609 30 μg/mL, GST-mS1ED or GST-mS4ED 20 μM; for cell spreading on FN: wells coated with 10 μg/mL FN, mAb 13 25 μg/mL; for cell spreading on VN: wells coated with 10 μg/mL VN, absence of serum
Experimental: FIG. 1 —MDA-MB-231 human mammary carcinoma cell spreading on VN, but not FN, is disrupted by soluble, recombinant Sdc-1ED. Cells were plated on wells coated with 10 μg/mL of VN or FN in plating medium alone or medium containing either 30 μg/mL mAb LM609, 25 μg/mL mAb 13, 20 μM GST-mS1ED or -mS4ED. Cells were incubated at 37° C. for 2 h, fixed and stained with rhodamine-conjugated phalloidin. Bar, 50 μm.
FIGS. 6A-B—Deletion of a region of the Sdc-1ED blocks αvβ3-mediated cell spreading. (FIG. 6A) Graphic representation of S1 expression constructs transfected into MDA-MB-231 cells and their relative expression levels as detected by FACS (mean fluorescent intensity). Note the locations of the mAb 281.2 and B-B4 binding sites; asterisks indicate the HS attachment sites. (FIG. 6B) Cells transfected with empty vector (NEO) or S1 constructs were seeded in plating medium on wells coated with either anti-hS1 mAb B-B4 (NEO+inset, hS1 and insets of mS1) or anti-mS1 mAb 281.2 (all others). Where noted, cells were pretreated in suspension with 1 μg/mL mAb P5D2 for 15 min prior to plating. Cells were incubated at 37° C. for 2 h, fixed and stained with rhodamine-conjugated phalloidin. Bar, 50 μm.
FIGS. 8A-H—Downregulation of Sdc-1 expression by siRNA disrupts cell spreading and migration on VN. (FIG. 8A) SiRNA targeting of hS1 mRNA. FACS analysis for (FIGS. 8B-C) hS1 (mAb B-B4), (FIG. 8D) hS4 (mAb F94-8G3) and (FIG. 8E) mS1 (mAb 281.2) expression against IgG controls (black filled histograms) in NEO and GPI-mS1ED expressing MDA-MB-231 cells 72 h after transfection with either lipid-vehicle alone (Vehicle or (V)) or 200 nM siRNA (RNAi or (R)). (FIG. 8F) NEO^MDA-MB-231 cells and MDA-MB-231 cells expressing GPI-mS1ED, mS1^Δ88-252, mS1^Δ122-252 and mS1^TDM were transfected with lipid-vehicle alone or 200 nM hS1-siRNA and seeded on wells coated with either 10 μg/ml of VN or FN. Cells were incubated at 37° C. for 2 h, fixed and stained with rhodamine-conjugated phalloidin. Bar, 50 μm. (FIG. 8G-H) Lipid-vehicle (gray-filled) or hS1-siRNA (black-filled) transfected cells were also plated on polycarbonate filters coated with either 10 μg/ml of VN (FIG. 8G) or FN (FIG. 8H) in a modified Boyden chamber. After 16 h, cells that migrated through the filter in response to 10% FBS in the lower chamber were quantified by colorimetric staining.
MDA-MB-231 human mammary carcinoma cells, plated in the absence of serum, adhere to and spread (˜15-20 min after plating) on wells coated with either 10 μg/mL VN or FN (FIG. 1). […] LM609 has no effect on spreading in response to FN; instead, the cells rely on […] to respond to FN as spreading is blocked by either 25 μg/mL mAb 13 (FIG. 1; Mould et al., 1996) or mAb 16 (unpublished data; Akiyama et al., 1989). […]

| Molecule | cell spreading on FN | cell spreading on VN |
| --- | --- | --- |
| GST-mS1ED: recombinant mouse syndecan-1 ectodomain expressed as a fusion protein with GST (protein, left off: a dimerising Fc or GST, recombinant mouse syndecan-1 ectodomain expressed as a fusion protein with GST) QIVAVNVPPEDQDGSGDDSDNFSGSGTGALPDTLSRQTPSTWKDVWLLTATPTAPEPTSSNTETAFTSVLPAGEKPEEGEPVLHVEAEPGFTARDKEKEVTTRPRETVQLPITQRASTVRVTTAQAAVTSHPHGGMQPGLHETSAPTAPGQPDHQPPRVEGGGTSVIKEVVEDGTANQLPAGEGSGEQDFTFETSGENTAVAAVEPGLRNQPPVDEGATGASQSLLDRKEVLG | no effect | blocks cell spreading |
| GST-mS4ED: recombinant GST fusion of mouse syndecan-4 ectodomain, specificity control (protein, left off: a dimerising Fc or GST, recombinant GST fusion of mouse syndecan-4 ectodomain, specificity control) ESIRETEVIDPQDLLEGRYFSGALPDDEDAGGSDDFELSGSGDLDDTEEPRPFPEVIEPLVPLDNHIPENAQPGIRVPSEPKELEENEVIPKRAPSDVGDDMSNKVSMSSTAQGSNIFERTE | no effect | no effect |
